Entries after “also recorded” stand apart in the source; their conditions may differ.
Assays:
[1] = Stability in human serum (denaturing PAGE, densitometry); type: in vitro ADME; conditions: 2'-fluoropyrimidine AsiC
Experimental: Aliquots were removed at regular intervals and resuspended in gel loading buffer and stored at −80° C. before electrophoresis on denaturing PAGE gels. The average intensity (+S.E.M.) of bands from 2 independent experiments quantified by densitometry after staining is shown.
EpCAM-AsiC targeting GFP synthesized using 2′-fluoro-pyrimidines, chemically-stabilized 21-mer cholesterol-conjugated GFP-siRNAs (chol-siRNA), and unmodified 21-mer GFP-siRNA, each in 100 ul PBS, which were added to 100 μl of human or mouse serum. At regular intervals, 20 μL was removed, and resuspended in gel loading buffer and frozen at −80° C. before being electrophoresed on a denaturing PAGE gel. FIG. 30A depicts representative PAGE gels and FIG. 30B depicts graphs of the average intensity (+S.E.M.) of bands from two independent experiments analyzed by densitometry. Both the stabilized cholesterol-conjugated siRNA and the EpCAM-AsiC are stable over the 36 h of the experiment.

[2] = tested on: human breast tumor and normal breast tissue biopsies; test: Uptake in human breast tumor and normal tissue biopsy explants; type: cell-based; conditions: 2 μM; 24 h; flow cytometry of single cell suspensions
From the text: It was next examined whether EpCAM-AsiCs concentrate in human breast tumors relative to normal breast samples within intact tissues. Paired normal tissue and breast tumor biopsies from 3 breast cancer patients were cut into cubes with −3 mm edges and placed in Petri dishes. The tumor sample cells were all EpCAM^bright and the normal tissue cells were EpCAM^dim (FIG. 3A). Fluorescently labeled Alexa647-siRNAs (not expected to be taken up by either normal tissue or tumor), Alexa647-cholesterol-conjugated siRNAs (chol-siRNAs, expected to be taken up by both), or Cy3-EpCAM-AsiCs were added to the culture medium and the tissues were incubated for 24 hr before harvest. The Cy3 signal of the AsiC, which could be visualized by the naked eye, concentrated only in the tumor specimens and was not detected in normal tissue (FIG. 3B). To quantify RNA uptake, flow cytometry analysis was performed on washed single cell suspensions of the tissue specimens (representative tumor-normal tissue pair (FIG. 3C), mean±SD of triplicate biospies from 3 EpCAM^bright paired breast tumor-normal tissue samples (FIG. 3D)). […] Thus, within intact tissue, EpCAM-AsiCs are selectively delivered to EpCAM^bright tumors relative to normal tissue. […]

EpCAM+ cell lines = test: In vitro gene knockdown by AsiC designs; type: cell-based, human
subcutaneous tumors = test: Tumor accumulation after intravenous injection of fluorescent EpCAM-AsiCs; type: in vivo, nude mice; conditions: tail vein
From the text: To be clinically useful, EpCAM-AsiCs need to be taken up by disseminated tumor cells. […] The EpCAM-AsiCs were detected around the injection site on day 2, but were only found within the EpCAM+ tumor on day 4.

MCF10CA1a (CA1a) tumor = test: MCF10CA1a tumor growth, AsiC injected sc near the tumor; type: in vivo, mice; conditions: luminescent photon flux, N=4
Experimental: The top panel depicts the experimental scheme. In this experiment the AsiCs were injected sc in the flank near the tumor, but not into the tumor. The bottom panel depicts a graph of Log2 total luminescent photon flux of the tumors (N=4); *, P<0.05 by Student's t-test.

breast cancer cell lines = test: Sphere (mammosphere) formation assay; type: cell-based, human
Experimental: For colony formation assay, 1,000 viable cells were treated for 6 h in round bottom 96-well plates and then transferred to 10-cm plates in serum-containing medium. Medium was replaced every 3 d. After 8-14 d, cells were fixed in methanol (−20 C) and stained with crystal violet. For sphere formation assay, 1,000/ml viable cells were treated for 6 h in round bottom 96-well plates and then cultured in suspension in serum-free DMEM/F12 1:1 (Invitrogen), supplemented with EGF (20 ng/ml, BD Biosciences), B27 (1:50, Invitrogen), 0.4% bovine serum albumin (Sigma) and 4 μg/ml insulin (Sigma). Spheres were counted after 1 or 2 weeks.

[3] = tested on: basal-A, luminal and basal-B breast cancer cell lines; test: Cell proliferation/viability by CellTiter-Glo in 10 breast cancer cell lines; type: cell-based, human
From the text: To explore whether EpCAM-AsiCs could be used as anti-tumor agents in breast cancer, we examined by CellTiterGlo assay the effect of AsiCs directed against PLK1, a kinase required for mitosis, on survival of 10 breast cancer cell lines that included 5 basal-A TNBCs, 2 luminal cell lines, and 3 basal-B TNBCs. […] The anti-proliferative effect strongly correlated with EpCAM expression (FIG. 2B). The reduction in viable EpCAM+ cells after knockdown was due to induction of apoptosis, assessed by annexin V-propidium iodide staining and caspase activation (data not shown). To determine whether ligation of the EpCAM aptamer contributed to the anti-proliferative effect of the EpCAM-AsiC, we compared survival of cells that were treated with the PLK1 EpCAM-AsiC with cells treated with the aptamer on its own (FIG. 2C). […] Thus the PLK1 EpCAM-AsiC asserts its specific anti-tumor effect on EpCAM+ breast cancer cells by gene knockdown.
For uptake and silencing treatment, cells were plated at low density (10,000 cells/well in 96-well plates) and treated immediately. All AsiC and siRNA treatments were performed in either OptiMEM or WIT medium. Cell viability was assessed by CellTiter-Glo (Promega) or by Trypan-Blue staining in 96-well plates.

[4] = listed as EpCAM-AsiC targeting PLK1
[5] = listed as EpCAM-AsiCs targeting PLK1

| Molecule | T1/2 in human serum [1] [h] | uptake by breast tumor vs normal tissue [2] | gene knockdown, EpCAM+ vs EpCAM− cells (EpCAM+ cell lines) | tumor accumulation after intravenous injection (subcutaneous tumors) | MCF10CA1a tumor growth (MCF10CA1a (CA1a) tumor) | sphere/mammosphere formation, EpCAM+ basal-A and luminal lines (breast cancer cell lines; [4]) | sphere/mammosphere formation, EpCAM− basal-B lines (breast cancer cell lines; [4]) | sphere/mammosphere formation, EpCAM+ basal-A and luminal lines (breast cancer cell lines; listed as PLK1 EpCAM-AsiCs) | sphere/mammosphere formation, EpCAM− basal-B lines (breast cancer cell lines; listed as PLK1 EpCAM-AsiCs) | cell proliferation/viability, basal-A and luminal (EpCAM+) lines [3, 4] | cell proliferation/viability, basal-B lines [3, 4] | cell proliferation/viability, basal-A and luminal (EpCAM+) lines [3, 5] | cell proliferation/viability, basal-B lines [3, 5] |
| --- | --- | --- | --- | --- | --- | --- | --- | --- | --- | --- | --- | --- | --- |
| EpCAM-AsiC: EpCAM aptamer-siRNA chimera, siRNA cargo not specified at the place; 2'-fluoropyrimidines, 3'-dTdT (nucleic acid, DNA at T, 2'-fluoro at CU, RNA at AG, backbone not given here; further chemistry not fully specified, EpCAM aptamer-siRNA chimera, siRNA cargo not specified at the place; 2'-fluoropyrimidines, 3'-dTdT) sense: GCGACUGGUUACCCGGUCGUUUUGAAGAAGAUCACCCUCCUUATT antisense: UAAGGAGGGUGAUCUUCUUCATT | > 36 | concentrated only in the tumors | selectively knocked down expression in EpCAM+ breast and colon cancer cell lines but not in normal epithelial cells or mesenchymal tumor cells | did not lead to significant AsiC accumulation within subcutaneous tumors |  |  |  |  |  |  |  |  |  |
| PLK1 EpCAM-AsiC: EpCAM aptamer linked by U-U-U to PLK1 siRNA sense strand (SEQ ID NO: 1), annealed to antisense strand (SEQ ID NO: 2) (nucleic acid, DNA at T, 2'-fluoro at CU, RNA at AG, backbone not given here; EpCAM aptamer fused to sense strand) sense: GCGACUGGUUACCCGGUCGUUUUGAAGAAGAUCACCCUCCUUATT antisense: UAAGGAGGGUGAUCUUCUUCATT |  |  |  |  | suppresses MCF10CA1a (CA1a) tumor growth | specifically inhibited sphere formation in basal A and luminal; also recorded: decreased the number of spheres only in basal A and luminal cells | had no effect on basal B cells | more strongly inhibited colony and mammosphere formation of EpCAM+ basal-A TNBCs and luminal cell lines than paclitaxel; also recorded: eliminated mammosphere and colony formation; also recorded: more strongly inhibited colony and mammosphere formation of multiple EpCAM+ basal-like TNBCs and a luminal cell line than paclitaxel | inactive against EpCAM− basal-B TNBCs | displayed a decrease in cell viability; also recorded: decreased cell proliferation in both basal A and luminal cell lines; also recorded: suppressed cell viability in basal A and luminal cell lines | having no effect on basal B cells | decreased cell proliferation | did not inhibit basal-B cells |
